{"source": "patent US20150030609A1", "about": "“DIAGNOSIS AND TREATMENT OF TRAUMATIC BRAIN INJURY” (UNIVERSITY OF SOUTH FLORIDA, priority 2011, published 2015)", "key": {"[1]": {"system": "primary oligodendrocyte (OL) cultures", "assay": "LDH assay of cell death in primary oligodendrocyte cultures exposed to normoxia or OGD with recombinant CCL20", "format": "cell-based, rat", "protocol": "Mixed glial cultures were prepared from postnatal day 2 rats and oligodendrocytes (OL) cultures were purified using the shaking and differential adherence method as previously described (26). Cell preparations were seeded (1.5×10^7) into flasks, OLs were purified from these preparations after 8 DIV and plated onto glass poly-l-lysine-treated coverslips. Following a 7 day proliferation period, the PDGF-AA was withdrawn for 5 days to induce OL differentiation into the mature phenotype. Experiments were conducted within three weeks.\nPrimary cells previously seeded onto glass coverslips were randomly assigned to one of five conditions: OGD (DMEM without glucose)+vehicle, OGD+CCL20 (200 ng; Rad Systems, Minneapolis, Minn.), normoxia (DMEM with glucose) only, normoxia+vehicle, or normoxia+CCL20. Cells undergoing OGD were placed in an airtight hypoxic chamber. The chamber was then flushed with hypoxic gas (95% N2, 4% CO2, 1% O2; Airgas, Tampa, Fla.) for 15 min and […] for the duration of exposure. Normoxic cells were maintained in a standard tissue culture incubator. Cultures were subjected to OGD or normoxia for 24 h at 37° C. The medium from each well was collected, clarified by centrifugation, and lactate dehydrogenase (LDH) analyzed immediately.\nCell death in culture was determined using the lactate dehydrogenase (LDH) assay (Takara Bio, Inc., Madison, Wis.). Briefly, 100 μl of tissue culture medium from each experimental group was added to a 96-well plate and 100 μl of LDH reagent was added to each well. Plates were incubated for 30 min at 25° C. and absorbances were read on a microplate reader at a 548 nm wavelength. The absorbance of medium only wells was subtracted from the total absorbance of each experimental treatment group to control for background LDH activity.\nBriefly, rat primary neurons or OLs were exposed to normoxia or OGD in the presence of 200 ng recombinant CCL20 or vehicle. Following the exposure, culture medium was collected and the LDH assay was performed to assess cellular death."}, "[2]": {"system": "primary neuronal cultures", "assay": "LDH assay of cell death in primary neuronal cultures exposed to normoxia or OGD with recombinant CCL20", "format": "cell-based, rat", "conditions": "200 ng recombinant CCL20, 24 h", "protocol": "Cortices from E18 rat embryos were dissociated with a solution of 0.25% trypsin/2.21 mM EDTA for 10 min at 37° C. The solution was triturated to obtain a uniform single cell suspension. After centrifugation, the supernatant was aspirated off and the cells were re-suspended in DMEM (Mediatech, Mannasas, Va.). Trypan blue exclusion was used to count viable cells and 3×10^5 cells in a final volume of 1 mL were seeded on 24 well poly-L-lysine treated culture plates. After 24 h, the medium was changed to neurobasal complete (neurobasal medium (Invitrogen), B-27 (Invitrogen), 0.05 mM L-glutamine (Mediatech) and cells were cultured for 7 days. Cells were used for oxygen glucose deprivation (OGD) experiments following one medium change, as determined by experimental grouping.\nPrimary cells previously seeded onto glass coverslips were randomly assigned to one of five conditions: OGD (DMEM without glucose)+vehicle, OGD+CCL20 (200 ng; Rad Systems, Minneapolis, Minn.), normoxia (DMEM with glucose) only, normoxia+vehicle, or normoxia+CCL20. […] The medium from each well was collected, clarified by centrifugation, and lactate dehydrogenase (LDH) analyzed immediately.\nCell death in culture was determined using the lactate dehydrogenase (LDH) assay (Takara Bio, Inc., Madison, Wis.). […] Plates were incubated for 30 min at 25° C. and absorbances were read on a microplate reader at a 548 nm wavelength. […]"}}, "note": "Entries after “also recorded” stand apart in the source; their conditions may differ.", "data": [{"substance": "CCL20: recombinant CC chemokine ligand 20 (CCL20, MIP-3α), purchased chemokine applied at 200 ng to cultured cells", "values": [{"measurement": "LDH release / cellular toxicity in OL cultures", "setting": "[1]; normoxia, 200 ng recombinant CCL20, 24 h, vs normoxia without CCL20", "value": "elicited toxicity to OLs; also recorded: increased LDH release"}, {"measurement": "LDH release / cell death in OL cultures", "setting": "[1]; oxygen glucose deprivation (OGD), 200 ng recombinant CCL20, 24 h, relative to OGD alone", "value": "significantly increased; also recorded: further enhanced OGD-induced cellular toxicity"}, {"measurement": "toxicity to cultured oligodendrocytes", "setting": "[1]; summary statement, conditions not given", "value": "toxic to cultured oligodendrocytes"}, {"measurement": "LDH release / neuronal viability", "setting": "[2]; normoxia", "value": "did not affect neuronal viability; also recorded: had no effect"}, {"measurement": "LDH release / cell death in neurons", "setting": "[2]; oxygen glucose deprivation (OGD), relative to OGD alone", "value": "significantly increased; also recorded: increased lactate dehydrogenase (LDH) release"}]}]}
